In article PMC1891329 one finds fold activation of the lacZ reporter data, which are given here for 1 substance.

The target of the assay is full-length MglA (residues 1–205) fused to Zif or to the ω subunit of E. coli RNAP (F. tularensis subspecies holarctica LVS). The experiment in a line: two-hybrid.

On to “full-length F. tularensis LVS SspA (residues 1–210) fused to the ω subunit of E. coli RNAP or to Zif (natural protein)”, for which the fold activation of the lacZ reporter was found to be 22 fold.
